This data set is described as follows: label from the status in PepcDB records.
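Further: failed if final PepcDB status was selected cloned or expressed and not failed if soluble or beyond.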

“MSSSSSKIVVYAALVGNLLIALSKFIAAYFTNSAAMLSEAIHSVVDSLNEILLLYGLKKSQKPANYRHPFGYGRELYFWAFIVALLVFALGAVVSIYQGVSHILQPEEMKYPLVNYLVLGFAILCEGASWWVAVKNFKKMKGSLGYFEAFKRSKDPTTFTVLFEDSAALIGLIIALIGITAAQFLQIPILDGVASVLIGVVLAVSAFLLARETKGLLLGETADPELRKNVLRIAQDDEAVYSANGVLTEQIGAHQVIASLSLEFKDGLISDEIENCVNRIEAQIKQIHPEIVALFIKPQSNEVWLERMKGRLNQQNGEIVAAKVK”: the protein production result is recorded as “failed”.

“MSSSSVIMDFLKYSPQPLQLITRPRHSIHHSTLRSSRRLTTSHNHSTPRSSSSHHHFSPSLDPVAEHHHHQSLDRTLDLVVESPHHHSLDPSLCHQVEFHHHPPLDIILDCQLQSLLDSAINKTLEHKEEMKTLARHSTHYLITWVEYHS”: the protein production result is “failed”.

For the sequence “MSSVINYEKFEKIDISSSDDDNKKKLNPHLTKLDNKDKVVIGPNGLTILKNNNDEKIKHDKYNNTSKNVEEIKDKNDEYKTIYNETNNEILNNKNDNIHVQNMNNYVADDKKYKDMFINGAVVPYEYIWNQSIHYINAFICLPLNCKAKNLIVDIKEDKLIVKIKNYKCGIIYNNNNNNNKTNQHNTQSNSFHDNVEILVDKKFPFKINTDEDTQIWEIKNMQINWYTLFNLSNEINNQNVHYLFEDYNMLDKQETFLYISVKKINEIENAYIWWSTLFKNEHPIKIENLPSRSSTNKAKKTMNSFKTAWDEAHEIFKKNISMKQLPFRIDSS”, the protein production entry is reported as “failed”. The result for “MSSVSLQDFDAERIGLFHEDIKRKFDELKSKNLKLDLTRGKPSSEQLDFADELLALPGKGDFKAADGTDVRNYGGLDGIVDIRQIWADLLGVPVEQVLAGDASSLNIMFDVISWSYIFGNNDSVQPWSKEETVKWICPVPGYDRHFSITERFGFEMISVPMNEDGPDMDAVEELVKNPQVKGMWVVPVFSNPTGFTVTEDVAKRLSAMETAAPDFRVVWDNAYAVHTLTDEFPEVIDIVGLGEAAGNPNRFWAFTSTSKITLAGAGVSFFLTSAENRKWYTGHAGIRGIGPNKVNQLAHARYFGDAEGVRAVMRKHAASLAPKFNKVLEILDSRLAEYGVAQWTVPAGGYFISLDVVPGTASRVAELAKEAGIALTGAGSSYPLRQDPENKNLRLAPSLPPVEELEVAMDGVATCVLLAAAEHYAN” reads “not failed”; that for “MSSWPQERRDSLLELVRKSREIFSSMKPLLRVGDRPRAVFVGDTHGAFMVTKYVFENFSDYDAIVFLGDYVDREPYGLENLEIILSHFVENKDKVIVLRGNHESPLTNEYYGFRAEVREKLGDENYKEFVDLFSEMPYAAIVNNYLCVHGGIARNLKNVQQIEELKKPDIIPEDEIAFEMLWNDPREELDGFVPNIRGEGTFFYGKDVTLEFLKENSLKGIIRGHEVADGFRSEIDERVITVFSSRYHKMRAGILLQDGEKFNMVYLDEEFLLKGDKS”, “failed”. As for “MSTAGLFSIFLIGIASNLDNAGVGIAYGIRKIRISWFNNFIIAFFGFLFTLLAGFFGNWIALFISEFTANLIGAIVLGIIGVFILCQPFLGQRNTVGSKDGNVLMGILRDPEKADFDGSKTISFSEAIVLGIALSINNIAGGFDAGITNLNLWLTATISGVFSFICISGFAYVGKRFLAEYLGKWATIIAEVLLILIGIDQLL”, the protein production result is on record as “failed”.

In the case of “MSTDQTPTAAGSGFSYTLTRTLDAPAARVWQAWTTPDQYAQWAYAVPGSVEMDVRPGGTWKATMRTPDGTEFPLTGSYIEVAEHRALTIGMNVPGRPDPATMTVELAEEGPRNTVITLRQTCDTAEERDGAEQGSGMLLDGLTGFLAGGKQG”, the protein production entry is “failed”. As for “MSTEKIINLAAYAGKILLQSGAEIYRVEETMNKICTAFNVKEAESFVTPTGIIISITGEDEKITSTIKRIQVRTVDLRKISEVNDLSRTLQYKNFSLEEVADKLKKIDNEKKHSDLFLIFFSAVAAGFFTLIFGGTFRDFSVSFFIGIIIKIFSIIISRLEINDFFLNMVGGAIAAFIALLFKKLGVVVYLDKTIIGSIMLLVPGLAITNAVRDTIAGDLVSGVSRALDAFFTAVAIAAGTGLVFKIWINFFGGTGL”, the protein production entry was “failed”. The result for “MSTELIAAVEAADSAEGLVRAVAALSAARTDAAIPTLISVLAFNNPGAAVVAVDGLIQLGSPAAQAILNNLDDYNYGARAWALRALAGIGEPAALPLLLSAAREDFSLSVRRAATYGLGRVRWADLSESDRLAQQQQCYETLKLCLQYDPEWVVRYAAAAALETLAPAATQLQSAIAETLNRQAHSDEERAVQARSRLAERRLAGGVLEHHHHHH” reads “not failed”; that for “MSTHVTFDYSKALSFIGEHEITYLRDAVKVTHHAIHEKTGAGNDFLGWVDLPLQYDKEEFARIQKCAEKIKNDSDILLVVGIGGSYLGARAAIEMLNHSFYNTLSKEQRKTPQVLFVGQNISSTYMKDLMDVLEGKDFSINVISKSGTTTEPALAFRIFRKLLEEKYGKEEARKRIYATTDKARGALKTLADNEGYETFVIPDDVGGRFSVLTPVGLLPIAVSGLNIEEMMKGAAAGRDDFGTSELEENPAYQYAVVRNALYNKGKTIEMLINYEPALQYFAEWWKQLFGESEGKDQKGIFPSSANFSTDLHSLGQYVQEGRRDLFETVLKVGKSTHELTIESEENDLDGLNYLAGETVDFVNTKAYEGTLLAHSDGGVPNLIVNIPELNEYTFGYLVYFFEKACAMSGYLLGVNPFDQPGVEAYKKNMFALLGKPGFEELKAELEERLK”, “not failed”; that for “MSTLIQDLKAQAGIFESDADQVHGLLAEFPDPGALLHAAEAVREEGYRHFDTHSPFPIHGMDEAMGLGNASAVGVLTFFGGITGCVVAYLLQWWTAAVDYPLNISGKPFFAVEPSVPIMFELTILFAAFGTVAGMFALNGLPRPYNPLFYSDRFKGATDDRFFLHIAASDDEFDVEDSAAMLQRLGAHHLELVKDDGTVDA”, “failed”. The result for “MSTQFSDKFIQNLKPEAKKYYIRESRGFAIVVHPSGIKNPKGTKTFLYIYTINGKRKELKLGNYPEVTLKDARIKHGEAYARLVNGEDPVTPPVIKAEPQDENLTFGHFTELYLQWSKDNHSPKWHNTIKCALNKDALPVWEYTLIASIKRRDAIAFLENVARRGIQVINLHKATSSVFDYALEREYIESNPMAGLKAKTIPALKPKARERFLSDSEIKHVWKAIDEGPGYDETKRALKLIMVTAQRPGEVAAMHRREIQTGVGKPRCKICKRCGWWTIPAERMKNGEEHRIYLTPTALELIGDAEGYIFPSPQDGQPINRNSLSQLVSRERNNKKPNGEMYPPYYGLPEWTPHDLRRTARTLLARVGVPEEHAEEVLSHKKEGLVDRYNRHDYMEEKKEALIKLEAELMKLSI” reads “failed”; that for “MSTQTSIEWTEMTWNPIVGCTKVSPGCKHCYAENMAHRLQAMGTPGYENGFKLSLRPEKLREPLQRKKPTIYFVNSMSDLFHEKVPDHYIDQVFEVIREATQHTFQILTKRAERLADYFSKRTPPTNAWLGVSVEDKAYGVPRIDCLRRVNATIRFLSAEPLLEDLGEIDLTDIHWVIVGGESGNKARPMQQEWVDNIHRQCDVSGSAFFFKQWGGWGADGVKRSKKANGRLLNGQTWDEIPLLNLALEHHHHHH”, “failed”. The result for “MSTQYWEEEIEIMSREKLQELQLQRLKKTINIAANSPYYKEVFSKNGITGDSIQSLDDIRKIPFTTKSDMRANYPFGLVAGDMKRDGVRIHSSSGTTGNPTVIVHSQHDLDSWANLVARCLYMVGIRKTDVFQNSSGYGMFTGGLGFQYGAERLGCLTVPAAAGNSKRQIKFISDFKTTALHAIPSYAIRLAEVFQEEGIDPRETTLKTLVIGAEPHTDEQRRKIERMLNVKAYNSFGMTEMNGPGVAFECQEQNGMHFWEDCYLVEIIDPETGEPVPEGEIGELVLTTLDREMMPLIRYRTRDLTRILPGKCPCGRTHLRIDRIKGRSDDMFIIKGVNIFPMQVEKILVQFPELGSNYLITLETVNNQDEMIVEVELSDLSTDNYIELEKIRRDIIRQLKDEILVTPKVKLVKKGSLPQSEGKAVRVKDLRDNK” reads “not failed”; that for “MSTSDPSAERPRDNFIYDIIDEDLEHGTYDGRVVTRFPPEPNGYLHIGHAKSIVLNFGIKHDYADRADTRCHLRFDDTNPDTESTEYVESIKEAVQWLGYDWEEHEYHASDYFEQFYQYAVTLIEQGDAYVDSLSEEEIREYRGTVDEPGTPSPYRDRSVEENLELFRKMRDGEFDDGEHVLRAKIDMSSPHMIMRDPLLFRIKHAHHYRRGDEWCIYPMYDYAHPLEDAIENITHSLCTLEFDNNRRVYDWVMEHCLDENELPSRPRQYEFNRLNLGYTVMSKTKLRHLIEEDLVGGWDDPRLPTISGLRRRGVPPSAIRSFCRTVGVTRSQSRVQIGHFEHALRDDLNAKAPRVMAVLDPLKVVATNVDADAVDWIDANHWPRDIDKDETRPVPFTREFYIERDDFREDPPEDFIRLAPGREVRLRHAYFFTCEEVVRDEDGVVTELRGTIDPETRDSTAPDGRSPEGTLHWVSAAHGLPFEARLYDRLFEVPDPDARDEHFTEFLNPDSLNVRQGVLEPAVRDLEADQRVQFERQGYFWPDPEASRPDALVYNQIVPLRDTWGEDEDGLTQEELARRRRAKEQRKQEQRRRSLDGKTDPAEHLDDAQRDRFDRFHDELGIDREDAATIAGNGALAGFFEQALAHYDAPVPVANWTVNELLGRLQDQTVADLPFGPDAFAELVRLVDTEFISTRGGDAVLDALLEDGGSPERIVDDRGLRQVDDTEALRPTVQSVLDDHPDEVSRYRDGKKGLIGFFMGQVMDATDGAASPELARELLQQELDPSA”, “failed”; that for “MSTSHPISKIYFSDKKSLQKVDILLEQEGIRRDTNLDYICAMFDDDLNIIATGSCFGNTLRCLSVDHHYQGDGLLNEIVTHLINIQFERGNTHLFLYTKPDTAKFFKDLGFYEIARADKQIVFMENKKDGFSNYLKNLEKPDSECQTTAALVINANPFTLGHQYLVEKAAAENELLHLFMVSDDSSLIPFSVRKQLILAGTEHLSNICYHETGPYIISKSIFPSYFQKDQASVIESQARIDLAIFIQIAKYLGIKGRYVGEEPTSLVTGIYNQIMLQELPKQAIDCIVVPRKTYKDGPISASTVRKALKEGNEQILRELLPSTSLNYFLSPEAQPLIKKIQKADNVIHY”, “failed”. Consider “MSTSPYEKLSEQEKKQMIKEIQEQAYEALLYAFGVEKKMISDDVKNLLNIEQESAEEKRKMAYEATLLAATFSHSLAKDRDGVLATLKNQLHITDDFHRECQNRVRNNILVVQLTGEASGSNYVGETGWTTLRRISNTIFRF”, for which the protein production result was “failed”. The result for “MSTSQTKNVSIDTIKEFMYQVLLKVGSDEENARMVRDTLIAADLRGMDTHGIQRFKTVYIDRIKKGMINPTAKPSIIRETSTTCVLDGNNGFGHVNGTIGMKMAIEKAKKYGMGMVVVRNSTHFGIAGYYSLLAAQEGCIGICGTNARSSVAATFGDEPILGTNPLAIGIPSDEAFPYCFDGATSISPTGRFEKYVRMGKTVDKSWASMKGGKPIEDPKELLENYPKGKAYLHPLGGSDEVSGSHKGYCLSEFVEIMSSCLSIANFLNHIEEEKEKSGKFSLGHFFIAINVECFRDLNEFKKNVGDINRTLRNTDKLPGHDRIYTAGEKEYETEQKRRKFGDDLPLVTINEMKELSSFYNVPLPF” reads “not failed”. Take “MSTTMKRQGCSSDSGDLRRQPSRLLKRPPALKIVPATPAANNWNTAIPLLSPLALSPESSPVDQPPVEKNQSTAVAVEKTPVFKKWQHPAAPFYYESSTFVPPFVPV”: the protein production result is reported as “failed”.

In the case of “MSTTTATLRDAIPDTRSLVTWAAVLNAEFILILGYVVNTAQPATDPFLLVFPFIWLNIAGLVALRVRPELPSRRRTIGSVVIALGYLLVLGYVGGVYGTGGQGTGLRLVTQAPPGFSPTVVFSGATLSVVLIPWKVAGYLALSYLVFVTAVDASGGAVGGIVGLFSCVSCVLPILASILGGFVGVGATLSQAALSQSYGLSTVVFVTSVGLLYGVHRFDVTLVGRLQALVDRP”, the protein production entry was “failed”.
